Results as given in IntAct's records for PubMed 31515488.
Values belong to the substance of their own block, whether it stands above or below them.

Columns and labels:
tmm79_human TMEM79 = molecular target: T1, tmm79_human TMEM79 (UniProt Q9BSE2)
T1 sequence: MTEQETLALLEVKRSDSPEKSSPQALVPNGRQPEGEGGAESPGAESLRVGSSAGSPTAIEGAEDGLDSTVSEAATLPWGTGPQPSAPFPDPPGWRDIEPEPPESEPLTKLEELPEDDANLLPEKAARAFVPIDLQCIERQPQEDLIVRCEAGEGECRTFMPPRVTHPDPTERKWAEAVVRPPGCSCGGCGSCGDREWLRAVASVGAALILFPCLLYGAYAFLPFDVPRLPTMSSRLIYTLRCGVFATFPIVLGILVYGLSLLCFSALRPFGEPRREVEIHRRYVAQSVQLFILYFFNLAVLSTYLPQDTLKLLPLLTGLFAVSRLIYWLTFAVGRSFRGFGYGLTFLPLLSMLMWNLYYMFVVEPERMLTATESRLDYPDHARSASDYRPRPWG

cxcl9_human CXCL9 = molecular target: T2, cxcl9_human CXCL9 (UniProt Q07325)
T2 sequence: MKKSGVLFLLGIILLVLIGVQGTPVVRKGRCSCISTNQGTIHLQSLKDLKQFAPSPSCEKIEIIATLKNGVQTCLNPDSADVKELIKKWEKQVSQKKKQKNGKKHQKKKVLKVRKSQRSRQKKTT

lhx8_human LHX8 = lhx8_human LHX8 (UniProt Q68G74)
fhl3_human FHL3 = fhl3_human FHL3 (UniProt Q13643)
traf2_human TRAF2 = traf2_human TRAF2 (UniProt Q12933)
gors2_human GORASP2 = gors2_human GORASP2 (UniProt Q9H8Y8)
dpyl5_human DPYSL5 = molecular target: T3, dpyl5_human DPYSL5 (UniProt Q9BPU6)
T3 sequence: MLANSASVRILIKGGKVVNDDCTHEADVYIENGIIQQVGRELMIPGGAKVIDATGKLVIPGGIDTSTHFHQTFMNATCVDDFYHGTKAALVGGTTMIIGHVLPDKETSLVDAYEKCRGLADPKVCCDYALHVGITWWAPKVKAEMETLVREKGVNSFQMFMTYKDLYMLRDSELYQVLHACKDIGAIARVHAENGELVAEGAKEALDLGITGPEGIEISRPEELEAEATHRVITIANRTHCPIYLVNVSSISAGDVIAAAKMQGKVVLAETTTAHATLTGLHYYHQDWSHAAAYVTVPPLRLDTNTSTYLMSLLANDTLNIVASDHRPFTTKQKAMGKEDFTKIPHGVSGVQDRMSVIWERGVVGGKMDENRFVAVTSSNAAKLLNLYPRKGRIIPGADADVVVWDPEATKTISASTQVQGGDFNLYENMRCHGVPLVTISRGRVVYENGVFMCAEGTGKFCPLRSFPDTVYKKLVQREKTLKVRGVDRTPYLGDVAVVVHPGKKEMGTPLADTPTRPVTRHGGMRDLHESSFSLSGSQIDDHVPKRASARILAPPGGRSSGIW

dpyl3_human DPYSL3 = dpyl3_human DPYSL3 (UniProt Q14195)
zn446_human ZNF446 [1] = molecular target: zn446_human ZNF446 (UniProt Q9NWS9)
kr101_human KRTAP10-1 = kr101_human KRTAP10-1 (UniProt P60331)
kcc2d_human CAMK2D = kcc2d_human CAMK2D (UniProt Q13557)
thap1_human THAP1 = thap1_human THAP1 (UniProt Q9NVV9)
otx1_human OTX1 = otx1_human OTX1 (UniProt P32242)
trim1_human MID2 [2] = molecular target: trim1_human MID2 (UniProt Q9UJV3)
mtus2_human MTUS2 = mtus2_human MTUS2 (UniProt Q5JR59)
zn446_human ZNF446 [3] = molecular target: zn446_human ZNF446 (UniProt Q9NWS9); remark: listed apart in the source
nasp_human NASP = nasp_human NASP (UniProt P49321)
cof2_human CFL2 = cof2_human CFL2 (UniProt Q9Y281)
dest_human DSTN = molecular target: T4, dest_human DSTN (UniProt P60981)
T4 sequence: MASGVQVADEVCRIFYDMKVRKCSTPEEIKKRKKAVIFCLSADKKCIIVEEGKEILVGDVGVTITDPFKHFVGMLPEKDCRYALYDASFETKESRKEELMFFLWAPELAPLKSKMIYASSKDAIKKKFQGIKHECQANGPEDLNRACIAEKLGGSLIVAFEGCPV

ntaq1_human NTAQ1 = ntaq1_human NTAQ1 (UniProt Q96HA8)
fund1_human FUNDC1 = fund1_human FUNDC1 (UniProt Q8IVP5)
nup50_human NUP50 = nup50_human NUP50 (UniProt Q9UKX7)
spopl_human SPOPL = spopl_human SPOPL (UniProt Q6IQ16)
an32b_human ANP32B = an32b_human ANP32B (UniProt Q92688)
rtraf_human RTRAF = rtraf_human RTRAF (UniProt Q9Y224)
hxb5_human HOXB5 = hxb5_human HOXB5 (UniProt P09067)
ctbp2_human CTBP2 = ctbp2_human CTBP2 (UniProt P56545)
cry2_human CRY2 = molecular target: T5, cry2_human CRY2 (UniProt Q49AN0)
T5 sequence: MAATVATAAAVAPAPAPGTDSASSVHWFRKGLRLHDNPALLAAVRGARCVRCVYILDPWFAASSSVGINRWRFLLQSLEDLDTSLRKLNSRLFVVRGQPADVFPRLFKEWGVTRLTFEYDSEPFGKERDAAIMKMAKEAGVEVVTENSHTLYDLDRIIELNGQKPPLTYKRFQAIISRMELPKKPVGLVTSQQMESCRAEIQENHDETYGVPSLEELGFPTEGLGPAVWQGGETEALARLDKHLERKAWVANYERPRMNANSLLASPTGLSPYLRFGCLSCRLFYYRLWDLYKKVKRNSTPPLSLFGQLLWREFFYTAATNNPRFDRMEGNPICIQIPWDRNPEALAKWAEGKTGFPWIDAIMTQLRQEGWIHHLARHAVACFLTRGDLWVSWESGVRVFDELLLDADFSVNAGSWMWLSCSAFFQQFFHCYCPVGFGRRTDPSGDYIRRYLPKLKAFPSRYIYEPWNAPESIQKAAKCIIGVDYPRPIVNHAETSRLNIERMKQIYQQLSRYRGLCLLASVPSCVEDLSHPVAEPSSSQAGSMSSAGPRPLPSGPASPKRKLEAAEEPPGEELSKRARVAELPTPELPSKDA

aapk1_human PRKAA1 = aapk1_human PRKAA1 (UniProt Q13131)
zn446_human ZNF446 [4] = molecular target: zn446_human ZNF446 (UniProt Q9NWS9); remark: listed apart in the source
trim1_human MID2 [5] = molecular target: trim1_human MID2 (UniProt Q9UJV3); remark: listed apart in the source
dzip3_human DZIP3 = dzip3_human DZIP3 (UniProt Q86Y13)
rbtn2_human LMO2 = rbtn2_human LMO2 (UniProt P25791)
fxl18_human FBXL18 = fxl18_human FBXL18 (UniProt Q96ME1)
erep1_human ENTREP1 = erep1_human ENTREP1 (UniProt Q15884)
pdli7_human PDLIM7 = pdli7_human PDLIM7 (UniProt Q9NR12)
hnrl1_human HNRNPUL1 = hnrl1_human HNRNPUL1 (UniProt Q9BUJ2)
ubql1_human UBQLN1 = ubql1_human UBQLN1 (UniProt Q9UMX0)
mdfi_human MDFI = mdfi_human MDFI (UniProt Q99750)
efs_human EFS = efs_human EFS (UniProt O43281)
zbt14_human ZBTB14 = molecular target: T6, zbt14_human ZBTB14 (UniProt O43829)
T6 sequence: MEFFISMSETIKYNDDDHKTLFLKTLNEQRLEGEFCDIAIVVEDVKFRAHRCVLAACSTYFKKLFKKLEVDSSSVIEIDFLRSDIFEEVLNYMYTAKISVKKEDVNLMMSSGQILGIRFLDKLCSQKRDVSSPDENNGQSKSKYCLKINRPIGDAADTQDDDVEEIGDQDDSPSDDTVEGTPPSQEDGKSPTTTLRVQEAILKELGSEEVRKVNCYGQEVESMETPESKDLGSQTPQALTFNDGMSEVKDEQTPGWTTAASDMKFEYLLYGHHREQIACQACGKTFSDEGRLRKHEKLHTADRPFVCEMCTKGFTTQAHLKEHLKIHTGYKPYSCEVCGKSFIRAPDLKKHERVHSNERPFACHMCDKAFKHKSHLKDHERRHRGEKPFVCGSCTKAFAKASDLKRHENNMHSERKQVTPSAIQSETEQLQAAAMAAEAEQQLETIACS

effect of a mutation on the interaction (tmm79_human TMEM79): with no effect
effect of a mutation on the interaction (cxcl9_human CXCL9): with no effect
Substance: Surfactant protein C (Homo sapiens) (from UniProt P11686) R167Q

effect of a mutation on the interaction (kcc2d_human CAMK2D): with no effect
effect of a mutation on the interaction (thap1_human THAP1): with no effect
Substance: Large ribosomal subunit protein uL11m (Homo sapiens) (from UniProt Q9Y3B7) R142C

effect of a mutation on the interaction (otx1_human OTX1): with no effect
Substance: Cartilage oligomeric matrix protein (Homo sapiens), P49747 N386D

effect of a mutation on the interaction (zn446_human ZNF446 [3]): with no effect
Substance: Zinc finger protein 397 (Homo sapiens), Q8NF99 P169S

effect of a mutation on the interaction (nasp_human NASP): with no effect
Substance: Histone H3.1 (Homo sapiens) (from UniProt P68431) A128G

effect of a mutation on the interaction (mdfi_human MDFI): with no effect
Substance: Nuclear transition protein 2 (Homo sapiens), Q05952 R131W

effect of a mutation on the interaction (zbt14_human ZBTB14): with no effect
Substance: Small ribosomal subunit protein eS7 (Homo sapiens) (from UniProt P62081) R106Q

Second part, the substance before the results:

Substance: Isoform 1 of Krueppel-like factor 3 (Homo sapiens), P57682-1 C322F
effect of a mutation on the interaction (lhx8_human LHX8): disrupting interaction strength
effect of a mutation on the interaction (fhl3_human FHL3): disrupting interaction strength
effect of a mutation on the interaction (traf2_human TRAF2): disrupting interaction strength

Substance: Dihydropyrimidinase-related protein 2 (Homo sapiens) (from UniProt Q16555) A267S
effect of a mutation on the interaction (gors2_human GORASP2): with no effect
effect of a mutation on the interaction (dpyl5_human DPYSL5): with no effect
effect of a mutation on the interaction (dpyl3_human DPYSL3): with no effect

Substance: Zinc finger and SCAN domain-containing protein 16 (Homo sapiens), Q9H4T2 R137Q
effect of a mutation on the interaction (zn446_human ZNF446 [1]): with no effect

Substance: Zinc finger protein 559 (Homo sapiens), Q9BR84 L6W
effect of a mutation on the interaction (kr101_human KRTAP10-1): with no effect

Substance: Zinc finger protein 785 (Homo sapiens), A8K8V0 R212C
effect of a mutation on the interaction (trim1_human MID2 [2]): with no effect
effect of a mutation on the interaction (mtus2_human MTUS2): with no effect

Substance: Actin, cytoplasmic 1 (Homo sapiens) (from UniProt P60709) E364K
effect of a mutation on the interaction (cof2_human CFL2): with no effect
effect of a mutation on the interaction (dest_human DSTN): disrupting interaction strength
effect of a mutation on the interaction (ntaq1_human NTAQ1): disrupting interaction strength

Substance: Tyrosine-protein kinase Yes (Homo sapiens), P07947 V52L
effect of a mutation on the interaction (fund1_human FUNDC1): with no effect

Substance: Importin subunit alpha-6 (Homo sapiens), O15131 F48L
effect of a mutation on the interaction (nup50_human NUP50): with no effect
effect of a mutation on the interaction (spopl_human SPOPL): with no effect
effect of a mutation on the interaction (an32b_human ANP32B): with no effect

Substance: Protein FAM98A (Homo sapiens), Q8NCA5 S283G
effect of a mutation on the interaction (rtraf_human RTRAF): with no effect

Substance: C-terminal-binding protein 1 (Homo sapiens) (from UniProt Q13363) A436T
effect of a mutation on the interaction (hxb5_human HOXB5): with no effect
effect of a mutation on the interaction (ctbp2_human CTBP2): with no effect
effect of a mutation on the interaction (cry2_human CRY2): with no effect
effect of a mutation on the interaction (aapk1_human PRKAA1): with no effect

Substance: Zinc finger protein 24 (Homo sapiens), P17028 T85M
effect of a mutation on the interaction (zn446_human ZNF446 [4]): with no effect
effect of a mutation on the interaction (trim1_human MID2 [5]): with no effect
effect of a mutation on the interaction (dzip3_human DZIP3): with no effect
effect of a mutation on the interaction (rbtn2_human LMO2): with no effect

Substance: Isoform 1 of NEDD4-like E3 ubiquitin-protein ligase WWP2 (Homo sapiens), O00308-1 V717M
effect of a mutation on the interaction (fxl18_human FBXL18): with no effect
effect of a mutation on the interaction (erep1_human ENTREP1): with no effect
effect of a mutation on the interaction (pdli7_human PDLIM7): with no effect
effect of a mutation on the interaction (hnrl1_human HNRNPUL1): with no effect

Substance: Frizzled-7 (Homo sapiens) (from UniProt O75084) P285S
effect of a mutation on the interaction (ubql1_human UBQLN1): with no effect

Substance: Tyrosine-protein kinase Fyn (Homo sapiens), P06241-3 V410M
effect of a mutation on the interaction (efs_human EFS): with no effect
